These results are taken from publication PMC3843635 (Protein Science : A Publication of the Protein Society, 2013).

Like-named read-outs stand apart in the source and are kept apart here. Where a SMILES comes first, the peptide text is derived from it. The star is where a group is joined. Bz = O=C(c1ccccc1)*

Assay [1] deals with Keap1-Nrf2 protein-protein interaction (CFP-Nrf2 and YFP-Kelch) (Homo sapiens, UniProt Q14145). Put plainly: FRET competition assay. The class given is binding. The settings on record: for binding activity relative to peptide 1: FRET competition, 7-mer peptides; for effect on association between CFP-Nrf2 and YFP-Kelch (FRET efficiency): unlabeled 16-mer peptides, competition assay, Fig. 5.
Chain of Keap1-Nrf2 protein-protein interaction (CFP-Nrf2 and YFP-Kelch) (Q14145 321-609): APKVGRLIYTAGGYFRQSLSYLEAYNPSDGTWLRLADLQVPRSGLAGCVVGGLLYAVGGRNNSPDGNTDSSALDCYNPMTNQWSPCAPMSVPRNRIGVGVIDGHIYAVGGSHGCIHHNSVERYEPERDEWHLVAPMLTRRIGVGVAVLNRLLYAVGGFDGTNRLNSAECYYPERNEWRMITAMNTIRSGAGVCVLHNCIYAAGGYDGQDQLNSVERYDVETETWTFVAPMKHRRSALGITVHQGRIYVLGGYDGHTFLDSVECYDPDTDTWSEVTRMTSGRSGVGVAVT

The subject of assay [2] is Keap1-Nrf2 protein-protein interaction. Conditions: read-out: FP IC50 ± SE; previously described FP assay; cited from earlier work.
Assay [3] deals with T1, YFP conjugated to the human Keap1 Kelch domain (YFP-Kelch) (human, UniProt Q14145 321-609). Briefly: FRET or BRET. A general note: Bioluminescence resonance energy transfer reports proximity on the nanometre scale.
T1 sequence (Q14145 321-609): as above
Assay [4] has as its target T1, YFP conjugated to the human Keap1 Kelch …. Put plainly: FRET or BRET. This is another data set of the same source.
The target is the same in assay [5]. Briefly: FRET or BRET. This is another data set of the same source.

Broadly, the IC50 is the concentration that gives 50% inhibition. As to `CC(C)C[C@H](NC(=O)[C@H](CCC(=O)O)NC(=O)CNC(=O)[C@@H](NC(=O)[C@H](CCC(=O)O)NC(=O)[C@@H]1CCCN1C(=O)[C@H](CC(=O)O)NC(=O)c1ccccc1)[C@@H](C)O)C(=O)O` [Peptide 4, Ph-DPETGEL-OH] (Bz-DPETGEL-OH; N-terminus assumed), the “binding activity relative to peptide 1” value in assay [1] is “increased binding activity”. Moreover, in assay [2], the IC50 is 0.16 ± 0.02 µM.

As to `CC(=O)N[C@@H](CC(=O)O)C(=O)N1CCC[C@H]1C(=O)N[C@@H](CCC(=O)O)C(=O)N[C@H](C(=O)NCC(=O)N[C@@H](CCC(=O)O)C(=O)N[C@@H](Cc1ccccc1)C(=O)O)[C@@H](C)O` [Peptide 3, Ac-DPETGEF-OH] (Ac-DPETGEF-OH), the “binding activity relative to peptide 1” value in assay [1] is “increased binding activity”. The IC50 in assay [2] was 0.25 ± 0.04 µM.

With “E79Q (AFFAQLQLDEQTGEFL) [Peptide E79Q, reference compound]”, the “effect on association between CFP-Nrf2 and YFP-Kelch (FRET efficiency)” value (“effect” for short) in assay [1] is “unable to perturb the association”.

Take “E82D (AFFAQLQLDEETGDFL) [Peptide E82D, reference compound]”: the “effect” value in assay [1] is listed as “unable to perturb the association”.

“T80K (AFFAQLQLDEEKGEFL) [Peptide T80K, reference compound]”: the “effect” value in assay [1] is “unable to perturb the association”.

As to E78P/F83L (AFFAQLQLDPETGELL), the “effect” value in assay [1] is reported as “dose-dependent reduction in FE”.

For orientation: Kd means the free concentration of one partner at which half of the binding sites on the other are occupied at equilibrium, for simple one-to-one binding. A lower Kd goes with higher affinity. In turn, AFFAQLQLDPETGELL [CFP-E78P/F83L] registered a Kd in assay [3] of 0.04 µM.

As to AFFAQLQLDPETGELL [E78P/F83L unlabeled 16-mer peptide], it took 0.08 µM to reach half-maximal inhibition in assay [4] (IC50).

AFFAQLQLDEEKGEFL [CFP-T80K] returned a Kd in assay [3] greater than 0.1 µM.

AFFAQLQLDEQTGEFL [CFP-E79Q]: in assay [3], the Kd was greater than 0.1 µM.

In the case of AFFAQLQLDEETGDFL [CFP-E82D], in assay [3], the Kd was greater than 0.1 µM.

In assay [5], Ac-DPETGEF-OH [peptide 3, Ac-DPETGEF-OH] yielded a half-maximal inhibitory concentration (IC50) of 0.33 µM.
